Test system: MS2 coat protein
Assay: apparent KD of MS2 coat protein; higher = weaker reporter binding
Conditions: Eterna round: R107
Outline: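 The designed RNA switches were transcribed on-chip from Illumina sequencing clusters. In 100 mM Tris-HCl pH 7.5, 80 mM KCl and 4 mM MgCl2, without or with constant ligand, they were titrated with SNAP-549-labelled MS2 coat protein from 0.7 or 1.5 nM to 3 µM in twofold steps. Apparent KD is the per-design median of normalised cluster binding-curve fits.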

[1] = input ligand: theophylline 20 uM
[2] = input ligand: tryptophan 2.4 mM
[3] = input ligand: theophylline 2 mM

## ACGUCUCGAAAACUCGUAGUAACUAUAGAUACCAGUAGCGAGAGUUACCCUUGGCAGCUACAUGAGGAUCACCCAUGUACGAGGA [XTheo A #28]
Input ligand: arginine 13.2 mM
  apparent KD of MS2 coat protein: 16.4 nM
[1]
  apparent KD of MS2 coat protein: 20.9 nM
[2]
  apparent KD of MS2 coat protein: 15.1 nM

## ACUCGAGGUGGAAGGAGCGGGAGACAUGAGCAUCACAUGAGGAUCACCCAUGUAGGAUCAUCCCAGGUAGGUCGCCAUGUCGAAA [avtamullin]
Input ligand: arginine 13.2 mM
  apparent KD of MS2 coat protein: 105 nM
Input ligand: none
  apparent KD of MS2 coat protein: 217 nM
[1]
  apparent KD of MS2 coat protein: 147 nM
[3]
  apparent KD of MS2 coat protein: 276 nM
[2]
  apparent KD of MS2 coat protein: 165 nM

## ACUGUCUUUGAUGAUAUGUAUGGGUCAUUGCGAGGACCGGUACGGCCGCCACUCGGUCCGCCACAUGAGGAUCACCCAUGUCUAU [theeternabot_exclusion_MS2_Trp_A_37]
Input ligand: arginine 13.2 mM
  apparent KD of MS2 coat protein: 56.8 nM
[1]
  apparent KD of MS2 coat protein: 94.6 nM
[3]
  apparent KD of MS2 coat protein: 195 nM

## AGAACCCAAGAGGAUACCAGAACGACAAUCAAAUCUUUUUACAUGAGGAUCACCCAUGUUUUCCCUUGGCAGCCUCAUGCACGAC [theeternabot_exclusion_MS2_Theo_B_43]
Input ligand: arginine 13.2 mM
  apparent KD of MS2 coat protein: 47.1 nM
[1]
  apparent KD of MS2 coat protein: 108 nM
[2]
  apparent KD of MS2 coat protein: 59.6 nM

## AGACAUGAGGAUCACCCAUGUAGUACGGAUACCAGAUCCAGAUGCGUCCCUUGGCAGCUGUGGUACAGCGUUACAUCGCUCGUAG [Exclusion - Theophylline A (Freestyle 23)]
Input ligand: arginine 13.2 mM
  apparent KD of MS2 coat protein: 16 nM
[1]
  apparent KD of MS2 coat protein: 29.9 nM
[2]
  apparent KD of MS2 coat protein: 18.6 nM

## AGAGCAUUGACGGCCGCCACUCAUGUCACAUGAGGAUCACCCAUGUGAUGGGUGAUCGCCCGGUUGAGGACCGGGUCAAUGCUCA [Omei Tryp SS B v2]
Input ligand: arginine 13.2 mM
  apparent KD of MS2 coat protein: 42.9 nM
[1]
  apparent KD of MS2 coat protein: 123 nM
[3]
  apparent KD of MS2 coat protein: 121 nM

## AGAGUCAGACAAAAGUCUGGCUCAGCCGAAGGAGCGUCCGAAAGGACAGGUAGGUCGCGGUUCCAUGAGGAUCACCCAUGGUCCU [ArgAS 28 #OpenEnded #AlternativeMS2]
Input ligand: arginine 13.2 mM
  apparent KD of MS2 coat protein: 47.1 nM
Input ligand: none
  apparent KD of MS2 coat protein: 85 nM
[1]
  apparent KD of MS2 coat protein: 85.1 nM
[3]
  apparent KD of MS2 coat protein: 119 nM
[2]
  apparent KD of MS2 coat protein: 71.1 nM

## AGAGUCAGACAAAAGUCUGGCUCAGCCGAAGGAGCGUCCGAAAGGACAGGUAGGUCGCGGUUGCAUGAGGAUCACCCAUGUUCCU [ArgAS 30 #OpenEnded #AlternativeMS2]
Input ligand: arginine 13.2 mM
  apparent KD of MS2 coat protein: 76.7 nM
Input ligand: none
  apparent KD of MS2 coat protein: 286 nM
[1]
  apparent KD of MS2 coat protein: 399 nM
[3]
  apparent KD of MS2 coat protein: 528 nM
[2]
  apparent KD of MS2 coat protein: 324 nM

## AGAGUCUAGUCGGCCGCCACUCAUGUCCUAAGGACAUGAGGAUCACCCAUGUACCAAAGGUACAUGAGGACCGGGACUGGACUCA [Omei Tryp B SS C v1]
Input ligand: arginine 13.2 mM
  apparent KD of MS2 coat protein: 23.3 nM
Input ligand: none
  apparent KD of MS2 coat protein: 75.9 nM
[1]
  apparent KD of MS2 coat protein: 345 nM
[3]
  apparent KD of MS2 coat protein: 189 nM
[2]
  apparent KD of MS2 coat protein: 9.28 nM

## AGAGUUAGACAAAAGUCUAGCUCACCAGAAGGAGCGUCCGAAAGGACAGGUAGGUCGCUGGUGCAUGAGGAUCACCCAUGUUCCU [ArgAS 20 #OpenEnded #AlternativeMS2]
Input ligand: arginine 13.2 mM
  apparent KD of MS2 coat protein: 26.9 nM
Input ligand: none
  apparent KD of MS2 coat protein: 115 nM
[1]
  apparent KD of MS2 coat protein: 211 nM
[3]
  apparent KD of MS2 coat protein: 313 nM
[2]
  apparent KD of MS2 coat protein: 150 nM

## AGAUGACACAGUGGAUAGCAAGAUGCCGAUACCAGCUAGGAAACUAGCCCUUGGCAGCGGUACAUGAGGAUCACCCAUGUAUCCU [EThA NP+V+V2 #10]
Input ligand: arginine 13.2 mM
  apparent KD of MS2 coat protein: 12.4 nM
[1]
  apparent KD of MS2 coat protein: 15.1 nM
[2]
  apparent KD of MS2 coat protein: 13.4 nM

## AGAUUACAUGUUUUAAUACGGAAAACUGAUACCAGUGUAUCUAUUCACCCUUGGCAGCAGCAACAUGAGGAUCACCCAUGUAUUA [JR_SSTheophyA_Sub016]
Input ligand: arginine 13.2 mM
  apparent KD of MS2 coat protein: 17.9 nM
[1]
  apparent KD of MS2 coat protein: 21.5 nM
[2]
  apparent KD of MS2 coat protein: 20 nM

## AGAUUUAUUUUGACCGGGCUCAUUCCUGAAGGAGCGCAGAACAAUGCAGGUAGGUCGCAGGACAUGAGGAUCACCCAUGUCAAGC [Isaes]
Input ligand: arginine 13.2 mM
  apparent KD of MS2 coat protein: 14.2 nM
Input ligand: none
  apparent KD of MS2 coat protein: 20.7 nM
[1]
  apparent KD of MS2 coat protein: 18.3 nM
[3]
  apparent KD of MS2 coat protein: 19.9 nM
[2]
  apparent KD of MS2 coat protein: 18.8 nM

## AGCACUGUGACGGCCGCCACUACAUAAAUAGGGUGGUCAGGUUCAUUACAUGAGGAUCACCCAUGUAGGACCGGGUCUCAGUGCA [Omei Trp Exc B A v7]
Input ligand: arginine 13.2 mM
  apparent KD of MS2 coat protein: 10 nM
[1]
  apparent KD of MS2 coat protein: 11.9 nM
[3]
  apparent KD of MS2 coat protein: 11 nM

## AGCAGAUCCCAGCGAAAGCUGGGAUCUGCACGAGGACCGGUACGGCCGCCACUCGAGGACAUGAGGAUCACCCAUGUACCGGUCA [Glorfindel]
Input ligand: arginine 13.2 mM
  apparent KD of MS2 coat protein: 174 nM
Input ligand: none
  apparent KD of MS2 coat protein: 75.8 nM
[1]
  apparent KD of MS2 coat protein: 64.6 nM
[3]
  apparent KD of MS2 coat protein: 238 nM
[2]
  apparent KD of MS2 coat protein: 78.3 nM

## AGCCCUGUACUAGAUACCAGCUACAUGAGGAUCACCCAUGUGCGUCAAGACUGACUGUGUAGCCCUUGGCAGCUACUCGCAUGUA [Exclusion - Theophylline B (Freestyle 3)]
Input ligand: arginine 13.2 mM
  apparent KD of MS2 coat protein: 13.7 nM
[1]
  apparent KD of MS2 coat protein: 23.1 nM
[2]
  apparent KD of MS2 coat protein: 14.9 nM

## AGCGAUAUGCAUGAUACCAGCUACAUGAGGAUCACCCAUGUACGUCAGUAAUGACUGUGUAGCCCUUGGCAGCAUAGAGCAUGUA [Exclusion - Theophylline B (Freestyle 13)]
Input ligand: arginine 13.2 mM
  apparent KD of MS2 coat protein: 21.7 nM
[1]
  apparent KD of MS2 coat protein: 35.4 nM
[2]
  apparent KD of MS2 coat protein: 22.7 nM

## AGCGGAACGGAAGGGUCCCGAAAUUGUGAUACCAGCCUUGAAUCCGGCCCUUGGCAGCACAUGAGGAUCACCCAUGUACUGCGGU [Arimaed]
Input ligand: arginine 13.2 mM
  apparent KD of MS2 coat protein: 11.4 nM
[1]
  apparent KD of MS2 coat protein: 20.7 nM
[2]
  apparent KD of MS2 coat protein: 13.1 nM
